Experiments:
[1] = target: LRP1 (alpha2-macroglobulin receptor/CD91) receptor (BioMac) (UniProt Q07954); assay: SPR (Biacore), LRP1 immobilized on CM4 chip; mean KD of lots A-C
[2] = target: LRP1 (alpha2-macroglobulin receptor/CD91) receptor (BioMac) (UniProt Q07954); assay: SPR (Biacore), LRP1 immobilized on CM4 chip; mean KD of lots D-F
[3] = target: Plasma-derived VWF (pdVWF, Diagnostica Stago) (UniProt P04275); assay: SPR (Biacore), pdVWF immobilized on CM5 chip; mean KD of lots A-C
[4] = target: Plasma-derived VWF (pdVWF, Diagnostica Stago) (UniProt P04275); assay: SPR (Biacore), pdVWF immobilized on CM5 chip; mean KD of lots D-F
[5] = target: Plasma-derived VWF (pdVWF, Diagnostica Stago) (UniProt P04275); assay: SPR (Biacore), pdVWF immobilized on CM5 chip; mean KD of lots G-I
[6] = target: LRP1 (alpha2-macroglobulin receptor/CD91) receptor (BioMac) (UniProt Q07954); assay: SPR (Biacore), LRP1 immobilized on CM4 chip; mean KD of lots K-N
[7] = target: Plasma-derived VWF (pdVWF, Diagnostica Stago) (UniProt P04275); assay: SPR (Biacore), pdVWF immobilized on CM5 chip; mean KD of lots K-N

Chain of UniProt Q07954 (Q07954 20-4544 limits assumed): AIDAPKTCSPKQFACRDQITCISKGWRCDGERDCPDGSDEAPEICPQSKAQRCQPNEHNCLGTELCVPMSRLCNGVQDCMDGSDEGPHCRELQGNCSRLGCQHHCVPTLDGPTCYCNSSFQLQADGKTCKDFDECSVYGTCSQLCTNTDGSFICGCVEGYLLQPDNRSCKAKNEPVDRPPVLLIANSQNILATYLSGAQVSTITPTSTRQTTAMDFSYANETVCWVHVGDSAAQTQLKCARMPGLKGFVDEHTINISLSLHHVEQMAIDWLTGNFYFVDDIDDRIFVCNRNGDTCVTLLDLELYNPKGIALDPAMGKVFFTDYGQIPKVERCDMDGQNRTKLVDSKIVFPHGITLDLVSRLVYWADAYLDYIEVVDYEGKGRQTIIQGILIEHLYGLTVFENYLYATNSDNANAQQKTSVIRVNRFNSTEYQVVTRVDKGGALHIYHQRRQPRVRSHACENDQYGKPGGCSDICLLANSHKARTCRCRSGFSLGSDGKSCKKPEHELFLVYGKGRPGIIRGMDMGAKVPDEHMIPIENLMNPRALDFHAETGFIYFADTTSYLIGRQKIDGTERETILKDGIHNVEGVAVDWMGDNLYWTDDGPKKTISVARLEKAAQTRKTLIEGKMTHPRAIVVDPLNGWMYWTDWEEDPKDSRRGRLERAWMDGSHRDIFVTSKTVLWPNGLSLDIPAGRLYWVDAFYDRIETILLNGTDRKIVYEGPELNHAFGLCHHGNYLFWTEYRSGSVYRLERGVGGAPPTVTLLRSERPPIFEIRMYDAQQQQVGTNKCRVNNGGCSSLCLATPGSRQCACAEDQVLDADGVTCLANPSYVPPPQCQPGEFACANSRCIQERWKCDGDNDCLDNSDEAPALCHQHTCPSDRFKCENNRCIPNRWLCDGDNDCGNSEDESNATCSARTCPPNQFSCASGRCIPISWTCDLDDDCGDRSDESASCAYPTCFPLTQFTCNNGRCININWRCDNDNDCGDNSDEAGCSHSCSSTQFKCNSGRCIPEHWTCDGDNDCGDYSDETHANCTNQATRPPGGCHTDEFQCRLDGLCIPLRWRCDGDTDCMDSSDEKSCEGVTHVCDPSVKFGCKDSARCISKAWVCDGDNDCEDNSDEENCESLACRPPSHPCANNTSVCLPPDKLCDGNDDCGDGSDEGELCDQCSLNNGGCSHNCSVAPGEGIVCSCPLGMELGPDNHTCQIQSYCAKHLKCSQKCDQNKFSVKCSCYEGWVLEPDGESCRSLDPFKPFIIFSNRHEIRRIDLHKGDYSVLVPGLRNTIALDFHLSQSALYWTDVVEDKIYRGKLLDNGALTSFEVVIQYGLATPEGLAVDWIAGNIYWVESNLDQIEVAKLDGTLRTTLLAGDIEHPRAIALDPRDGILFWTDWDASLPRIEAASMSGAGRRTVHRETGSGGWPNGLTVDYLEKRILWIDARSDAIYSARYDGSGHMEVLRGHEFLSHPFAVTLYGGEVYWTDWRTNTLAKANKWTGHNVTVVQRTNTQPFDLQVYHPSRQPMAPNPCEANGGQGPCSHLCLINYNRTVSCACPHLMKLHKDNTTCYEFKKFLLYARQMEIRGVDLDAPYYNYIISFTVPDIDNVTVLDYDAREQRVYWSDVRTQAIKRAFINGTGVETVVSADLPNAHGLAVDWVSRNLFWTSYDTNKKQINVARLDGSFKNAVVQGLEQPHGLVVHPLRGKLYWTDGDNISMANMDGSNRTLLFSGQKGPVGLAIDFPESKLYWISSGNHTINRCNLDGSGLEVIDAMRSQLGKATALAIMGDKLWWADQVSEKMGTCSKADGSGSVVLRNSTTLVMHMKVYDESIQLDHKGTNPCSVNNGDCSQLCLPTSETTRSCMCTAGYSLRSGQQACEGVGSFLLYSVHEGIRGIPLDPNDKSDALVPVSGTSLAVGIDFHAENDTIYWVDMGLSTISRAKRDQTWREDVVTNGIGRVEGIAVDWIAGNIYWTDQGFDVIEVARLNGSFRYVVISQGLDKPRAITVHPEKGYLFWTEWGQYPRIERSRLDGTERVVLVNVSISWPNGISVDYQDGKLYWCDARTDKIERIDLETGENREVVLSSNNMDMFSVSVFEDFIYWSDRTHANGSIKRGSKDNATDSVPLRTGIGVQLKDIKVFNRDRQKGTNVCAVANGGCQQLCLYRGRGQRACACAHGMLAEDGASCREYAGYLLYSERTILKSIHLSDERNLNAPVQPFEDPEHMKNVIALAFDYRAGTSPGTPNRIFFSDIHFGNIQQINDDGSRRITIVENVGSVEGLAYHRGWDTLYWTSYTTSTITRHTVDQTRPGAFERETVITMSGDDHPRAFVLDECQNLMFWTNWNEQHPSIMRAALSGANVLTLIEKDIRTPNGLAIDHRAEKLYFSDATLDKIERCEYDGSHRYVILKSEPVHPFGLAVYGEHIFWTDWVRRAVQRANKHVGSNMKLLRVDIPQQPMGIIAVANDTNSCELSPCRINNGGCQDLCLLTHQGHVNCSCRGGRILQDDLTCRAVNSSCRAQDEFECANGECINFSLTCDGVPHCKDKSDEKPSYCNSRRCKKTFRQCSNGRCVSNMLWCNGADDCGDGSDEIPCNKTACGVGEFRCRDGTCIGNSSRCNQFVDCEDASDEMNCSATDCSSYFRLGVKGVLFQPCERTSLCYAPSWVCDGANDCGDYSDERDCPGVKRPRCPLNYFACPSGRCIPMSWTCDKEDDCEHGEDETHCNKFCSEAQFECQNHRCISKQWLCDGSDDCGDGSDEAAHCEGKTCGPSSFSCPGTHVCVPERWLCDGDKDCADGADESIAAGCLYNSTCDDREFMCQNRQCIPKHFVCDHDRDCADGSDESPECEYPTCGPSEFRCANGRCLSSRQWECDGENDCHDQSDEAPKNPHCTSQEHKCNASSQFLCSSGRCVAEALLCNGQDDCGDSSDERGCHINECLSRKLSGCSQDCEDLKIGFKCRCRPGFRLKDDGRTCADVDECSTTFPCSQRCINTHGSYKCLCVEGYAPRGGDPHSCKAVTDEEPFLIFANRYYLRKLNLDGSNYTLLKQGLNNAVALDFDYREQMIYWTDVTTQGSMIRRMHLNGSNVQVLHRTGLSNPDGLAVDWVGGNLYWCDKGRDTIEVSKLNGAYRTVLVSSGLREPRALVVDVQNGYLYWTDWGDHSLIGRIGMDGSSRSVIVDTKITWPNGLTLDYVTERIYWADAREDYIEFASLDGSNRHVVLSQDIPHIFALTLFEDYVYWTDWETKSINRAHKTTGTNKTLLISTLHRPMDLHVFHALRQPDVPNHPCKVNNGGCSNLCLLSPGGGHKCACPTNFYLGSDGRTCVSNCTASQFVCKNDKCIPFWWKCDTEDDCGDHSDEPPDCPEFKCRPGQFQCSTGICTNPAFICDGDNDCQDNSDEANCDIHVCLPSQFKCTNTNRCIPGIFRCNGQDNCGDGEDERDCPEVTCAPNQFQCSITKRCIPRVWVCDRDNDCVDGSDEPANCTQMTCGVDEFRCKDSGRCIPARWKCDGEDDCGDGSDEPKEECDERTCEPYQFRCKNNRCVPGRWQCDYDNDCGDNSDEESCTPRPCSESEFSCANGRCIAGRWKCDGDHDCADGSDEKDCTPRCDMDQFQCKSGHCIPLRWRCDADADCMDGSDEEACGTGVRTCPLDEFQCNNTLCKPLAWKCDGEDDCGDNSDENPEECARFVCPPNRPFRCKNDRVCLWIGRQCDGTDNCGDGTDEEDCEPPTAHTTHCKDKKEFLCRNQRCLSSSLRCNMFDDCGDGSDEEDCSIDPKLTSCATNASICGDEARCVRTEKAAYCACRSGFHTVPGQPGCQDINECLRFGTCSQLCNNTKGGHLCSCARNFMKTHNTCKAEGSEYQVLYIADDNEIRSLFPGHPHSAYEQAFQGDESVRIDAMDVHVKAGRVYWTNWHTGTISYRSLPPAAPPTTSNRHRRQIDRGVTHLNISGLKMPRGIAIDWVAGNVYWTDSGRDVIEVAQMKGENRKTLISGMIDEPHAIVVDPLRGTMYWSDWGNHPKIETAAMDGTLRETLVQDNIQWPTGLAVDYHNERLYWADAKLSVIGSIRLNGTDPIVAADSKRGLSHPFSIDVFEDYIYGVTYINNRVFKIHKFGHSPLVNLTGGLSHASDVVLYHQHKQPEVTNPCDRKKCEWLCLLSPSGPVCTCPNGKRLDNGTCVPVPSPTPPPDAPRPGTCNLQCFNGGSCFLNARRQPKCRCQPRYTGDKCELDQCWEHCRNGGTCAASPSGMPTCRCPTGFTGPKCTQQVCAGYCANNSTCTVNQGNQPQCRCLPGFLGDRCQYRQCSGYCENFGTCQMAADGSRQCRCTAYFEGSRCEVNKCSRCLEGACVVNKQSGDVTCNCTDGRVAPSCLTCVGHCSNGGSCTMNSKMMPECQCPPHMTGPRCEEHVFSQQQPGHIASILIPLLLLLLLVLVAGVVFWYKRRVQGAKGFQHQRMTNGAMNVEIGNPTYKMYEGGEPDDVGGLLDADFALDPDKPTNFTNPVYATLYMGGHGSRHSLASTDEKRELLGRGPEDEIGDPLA

| Kd [1] | Kd [2] | Kd [3] | Kd [4] | Kd [5] | Kd [6] | Kd [7] | Substance |
| --- | --- | --- | --- | --- | --- | --- | --- |
| 19 nM | 32 nM | 0.28 nM | 0.28 nM | 0.31 nM |  |  | PSA-rFVIII (polysialylated recombinant Factor VIII) (from UniProt P00451 20-2351) |
|  |  |  |  |  | 22.3 nM | 0.32 nM | rebuffered rFVIII (unmodified recombinant Factor VIII) (from UniProt P00451 20-2351) |

Source: patent US20190240295A1
